The target in this assay is SARS-CoV-2 S trimer (SARS-CoV-2, wild-type (Wuhan-Hu-1 …, UniProt P0DTC2)). As to the kind of experiment: SPR.

B1: C121 IgG (antibody, V domains shown)
VH: not shown
VL: QSALTQPASVSGSPGQSITISCTGTSSDVGSYNLVSWYQQHPGKAPKLMIYEGSKRPSGVSNRFSGSKSGNTASLTISGLQAEDEADYYCCSYAGSSTLVFGGGTKLTVL
On to B1, for which the binding result is reported as “binds”.

Source of the values: publication doi:10.1101/2021.01.22.427567 (bioRxiv, 2021).
